Substrate in the data set: O=[N+]([O-])c1ccccc1O[C@@H]1O[C@H](CO)[C@H](O)[C@H](O)[C@H]1O
The data set is described as follows: purified protein. Type of data set: biochemical, Bifidobacterium breve. The conditions noted are these: 50 mM sodium phosphate pH 6.5, 30°C.

B1: β-gal II (Bifidobacterium breve DSM 20213 = JCM 1192) (protein)
chain: MNTTDDQLKNGDPIVSPSMPTTAWLTDPRVYAVHRLDAHSDHACWSHAPVNGEGSDLGQSLDGEWRVRVETAPTGRFPDGTSDVSPLFAASDFDDSSFSRVQVPSHLETAGLLAPQYVNVQYPWDGHEDPEAPAIPEHGHVAVYRREFDADGEVAQAVREGHPVTLTFQGAATAIYVWLNGSFVGYAEDSFTPSEFDVTDAIKMEGNVLAVACYEYSSASWLEDQDFWRLHGLFRSVELNARPSAHVADIHADTDWDPATSRGSLSLDILVDGTPNAATADLVLRDKNGTTVWHTSTEATGTLHAEAEIDGASPWSAERPDLYTLSIALLDADGRILEIARTRIGFRRVSIEDGILKLNGKRLVFRGVNRHEFDCRRGRAITEEDMLWDIRFMKRHNINAVRTSHYPNQSRWYELCDEYGIYLIDETNLETHGSWNSPGDIPVGTSVPGDDEAWLGACIDRLDSMIMRDRNHPSVLIWSLGNESYAGEVLKAMSAHAHRLDPGRPVHYEGVNWNHAYDEISDFESRMYAKPAEIRDWLEHGDERGEASKPFVSCEYMHAMGNSCGGLSEFIDLERYERYSGGFIWDYIDQGLVQRLPDGCERLSVGGDWGDRPTDYEFVGNGIVFADRTPSPKAQEVKQLYSPVKLTPDGHGVTIENRNLFASTDGYVFAARLLEDGREIWHADYRFDVAAGDTQHHDIAFPDIDSDEGTREVTYEVDLLLAEATAWAPAGYELAFGQLTDTLNPEGDITGNNQDDGRATVTLSRWNAGIRRDDEEILMSRTQGGIVSWKRNGREMVIRRPEIVTFRPLTDNDRGNRSGYDRAAWFAAGRYAVVTDTSITQSDDGGLTAAYRYELADPDHTPVSVTYRVTPGMRMQLTVEYPGNAAGAASLPAFGIEWELPGEYQHLRYYGTGPEETYRDRKQGGKLGIWDTTSEASTAPYLMVQETGSHEDVRWLEATDIQGHGLRVTQRGDRHFTASLLPWNTYTIEAARRHEDLPAPRHNYLRLLAAQMGVGGDDSWGAPVHTAYQLPADRPLTLDVNLELI
notes: full length, C-terminal His6 tag kept (pET-21a), E. coli T7 Express with GroEL/GroES, IMAC; calculated 116,594 Da; homodimer 211 kDa; GH2; N-terminus from primer MNTTDDQ, C-terminus before tag DVNLELI
As usually defined, the Km is the substrate concentration at which the rate is half of its maximum. The Vmax is the rate approached at saturating substrate. Broadly, the kcat is the maximal rate divided by the concentration of active sites. What is called kcat/Km is the turnover number divided by the Michaelis constant. Consider B1, for which the Km was 670 ± 70 µM, the maximal velocity (Vmax) amounted to 188 µmol/min/mg, the kcat amounted to 364 ± 6 s⁻¹ and the kcat/Km amounted to 543000 ± 65000 M⁻¹ s⁻¹.

B2: β-gal I (Bifidobacterium breve DSM 20213 = JCM 1192) (protein)
chain: MQGKAKTIMTNLQSAQQFSQAWLTDPRVFAVNRLAAHSSHKFYDHAPQCGEAMDLKQSLDGQWRVQMVDLADLADNELAEAAFAQPGYDAAGFSPIEVPSALETKGFLNHQYVNQQYPWSGHESPVAPDVPKHNHVALYRHEFSLEPKAAAVLEANKTAADDTAKRRVTLTFQGAATAIAVWLNGAFIGYAEDSFTPSEFDVTDVLRDGVNTLAVACFEFSSASWLEDQDFWRLHGIFRSVELEAQPLVHVNDLRVLADYDHTTGEGSLDVVALVRNAGTAAAVAATVLDAAGNTVWHSKLTAGADAETLTVKANVGKVNPWSAEEPTLYTLQVVATDAAGQVIEAALQRIGFRHFAIEDGLMKLNGKRIVFKGVDRHEFDARTGRTIAEADMIEDIHSFKRLNINAVRTSHYPNETRWYELCDEYGIYVLDETNLETHGSWTDPGDVFQPARAIPGSKDEWRAACVDRTASMVRRDYNHPSVVIWSLGNEAFGGDVFYSMRDFVHENDPFRPVHYEGTFNDPEFSAATDIMSRMYAKPDEIVKLYLGEDGKKPYISCEYSHSMGNSTGGLHLYTELERYPLYQGGFIWDYVDQALWQDCGDGTERLAYGGDFEDRPNDYEFSGDGVMFADRTPSPKAQEVKQLYANVKLVPDESGVTITNDNLFVSTASSLFTARVLVDGVERWHANYRFDVPAGETVREPIAFPKVTDLVALSGSAEVTYEVDQRLAEATDWAPAGYELTFGQYVAAVSFDDGAADAVVAGDAEVAADGFNAGIHTDFGEVLLSKTQGGMVSFKRDGREMVIRRPNLTTFRALTDNDRGNGSGFERAQWMAAGRYARVTDTSVEETADGKGLKATYSYELADAKHTPVTVHYEVDAALRVHLTVEYPGEADAATLPAFGLEWILPKQYDRLRFYGLGPEETYADRLHGAKLGVFSRTAAEDCAPYLLPQETGNHEQVRWAEITDEYGHGMRVTAAGGTRFATSLLPYSSLMLEDALHQNELPKPRHTFLRLLAAQMGVGGDDTWGAPVHDEFQVPADQPLKLDVTLELI
notes: full length, C-terminal His6 tag kept (pET-21a), E. coli T7 Express with GroEL/GroES, IMAC; calculated 116,127 Da; homodimer 220 kDa; GH2; N-terminus from primer MQGKAKT, C-terminus before tag DVTLELI
For the protein B2, the Km amounted to 1300 ± 100 µM, the Vmax came to 486 µmol/min/mg, the turnover number (kcat) was found to be 939 ± 7 s⁻¹ and the kcat/Km turned out to be 722000 ± 66000 M⁻¹ s⁻¹.
